Reference: patent US5514538A, “Bicarbonate assay and phosphoenolpyruvate carboxylase enzyme from hyphomicrobium” (Genzyme Limited, priority 1990, dated 1996)
Structures can show the parent of a compound that is named as a salt. Where two headings read alike, the source gives them in different places. Values belong to the molecule of their own block, whether it stands above or below them.

Tests used:
[1] = tested on: PEPC; experiment: Effect of calcium and Mg^2+ on PEPC activity; type: biochemical, Hyphomicrobium
[2] = tested on: Hyphomicrobium PEPC; conditions: pH 8.0, 167 mM Tricine buffer + 1 mM MgCl2
[3] = tested on: Hyphomicrobium PEPC; experiment: Km of Hyphomicrobium PEPC with phosphoenol pyruvate salts; type: biochemical; conditions: pH 7.0 and 25° C.
Protocol: The Km's of Hyphomicrobium PEPC were checked with both sodium bicarbonate and phosphoenol pyruvate as substrates.
The result is 0.91 mM for the tricyclohexylammonium salt.

[4] = Specific activity of PEPC (malate dehydrogenase/NADH-coupled assay, A340); type: biochemical
Protocol: (a) Lysis is performed with a solution of Triton X-100, a non-ionic detergent. It is added to resuspended cells (10% w/v) at 1% v/v. Lysis usually takes about 1 to 1.5 hours at 15° to 20° C. Once lysis is complete, the cell debris is removed by centrifugation with the aid of streptomycin sulphate.
(§1) (b) Column chromatography involves the use of a strong anion exchanger such as Fractogel-TMAE, DEAE sepharose, Q sepharose, DE 52 or QA 52.
(§2) For a large volume of enzyme solution, the absorption can be is carried out as a batch up-take. The gel also has a batch wash prior to packing into the column for a gradient elution.
(§3) The gradient is of increasing salt concentration. The active fractions are pooled to give a specific activity of >30 U/mg but some fractions contain enzyme of 60 U/mg protein.
Lyophilised PEPC powder is obtained, having the following characteristics:
A 167 mM Tricine. HCl buffer, pH 8.0, containing 16.7 mM MgCl2
B 20.7 mM sodium bicarbonate in Reagent A
C 217 mM phosphoenolpyruvate in Reagent A
D 10 mM NADH solution, the concentration of which is checked in the following way:
1 Dispense 0.98 ml of Reagent A into a cuvette and zero a spectrophotometer set at 340 nm with this cuvette
2 Add 0.02 ml of Reagent D to this cuvette and mix thoroughly
E 700 U/ml malate dehydrogenase
1 Adjust spectrophotometer to 340 nm and 25° C.
2 Prepare a reagent cocktail as follows:
Into a 50 ml beaker dispense; 46.0 ml Reagent B 1.0 ml Reagent C
This cocktail is stable for 8 hr when stored at 4° C.
3 Dispense 0.94 ml of the reagent cocktail into a cuvette together with 0.02 ml of Reagent D, and 0.02 ml of Reagent E
Incubate the cuvette in the spectrophotometer at 25° C. to attain temperature equilibration and then establish background rate, if any
4 Dilute the enzyme to approximately 1.5 U/ml in reagent A, and initiate the reaction by adding 0.02 ml of this solution to the cuvette
5 Calculate the change in absorbance (ΔA/rain) over the linear portion of the reaction [formula]

[5] = Stability of reconstituted enzyme with azide; type: physicochemical
Protocol: The enzyme was stored in assay buffer (167 mM Tricine/HCl with 15 mM MgCl2, pH 8.0).

[6] = isolated enzyme
[7] = Storage of enzyme on anion exchange gel: recovery and pool specific activity; type: physicochemical
Protocol: as §1, §2, §3
If stored for longer, then the recoveries begin to decrease.

[8] = pH stability of enzyme solutions stored at 25° C.; type: physicochemical
Protocol: For pH 6.0, 8.0 and 9.0, 150 mM Tricine+1 mM MgCl2 was used. For pH 7.0 150 mM bis-tris+1 mM MgCl2 was chosen. Solutions were stored at 25° C.

[9] = Effect of temperature on the activity of PEPC; type: biochemical; conditions: 167 mM tricine pH 7.0, 1 mM MgCl2
Protocol: The effect of temperature on the activity of PEPC was evaluated. Lyophilised enzyme was resuspended in 167 mM tricine buffer pH 7.0 containing 1 mM MgCl2 at a concentration of 300 u/l. The enzyme was then assayed at the desired temperature using the recommended reagents.

[10] = pH 7
[11] = lyophilised
Protocol: Stability trials have been conducted on lyophilised enzyme, at 4° C., 25° C. and 37° C.
All recoveries are based on specific activity to rule out weighing errors.

[12] = Effect of pH on the enzyme activity (buffers and pH changed); type: biochemical
Source text: The effect of pH on the enzyme activity was checked by changing the buffers as well as pH values. Once again, at pH 7 Bis-tris was used.

[13] = Effect of pH on the activity of PEPC; type: biochemical
Protocol: The effect of pH on the activity of PEPC was evaluated. Lyophilised enzyme was resuspended (10 mg/ml)) in 167 mM Tricine pH 8.0 (+1 mM MgCl2) and diluted to a concentration of 1 u/ml. The enzyme was then assayed in the following buffer systems. At pH 6.0, 8.0 and 9.0 Tricine (150 mM) was used. At pH 6.5 and 7.0 bis-tris (150 mM) was used.

[14] = after anion exchange gradient elution

Km [2]: 1300 µM | Km ([2]; read-out: Km (probable, without dissolved carbon dioxide from the atmosphere)): < 1000 µM
Molecule: O=C(O)O [bicarbonate, sodium bicarbonate]

pH profile [6]: broad pH profile | % activity recovered ([12]; pH 6): 65.5% | % activity recovered ([12]; pH 6.5): 74.5% | % activity recovered ([12]; pH 7.0, Bis-tris): 100% | % activity recovered ([12]; pH 8.0): 88.2% | % activity recovered ([12]; pH 9.0): 74.5%
Molecule: phosphoenolpyruvate carboxylase [PEPC]
specific activity of pooled active fractions [4, 14]: > 30 U/mg | specific activity of some fractions [4, 14]: 60 U/mg protein | Powder activity ([4]; lyophilised PEPC powder): > 10 U/mg | Specific activity ([4]; lyophilised PEPC powder): > 25 U/mg Protein | % activity recovered ([5]; pH 8.0, 4 days, 4° C.): 94% | % activity recovered ([5]; pH 8.0, 4 days, 25° C.): 104% | % activity recovered ([5]; pH 8.0, 4 days, 37° C.): 2% | % activity recovered ([5]; pH 8.0, 7 days, 4° C.): 96% | % activity recovered ([5]; pH 8.0, 7 days, 25° C.): 92% | % activity recovered ([5]; pH 8.0, 7 days, 37° C.): 0% | % activity recovered ([5]; pH 8.0, 14 days, 4° C.): 94% | % activity recovered ([5]; pH 8.0, 14 days, 25° C.): 93% | % activity recovered ([5]; pH 8.0, 30 days, 4° C.): 100% | % activity recovered ([5]; pH 8.0, 30 days, 25° C.): 86% | % activity recovered ([5]; pH 8.0, 42 days, 4° C.): 105% | % activity recovered ([5]; pH 8.0, 42 days, 25° C.): 85% | % activity recovered ([5]; pH 8.0, 63 days, 4° C.): 105% | % activity recovered ([5]; pH 8.0, 63 days, 25° C.): 66% | Pool S/A ([7]; 0 days stored on gel): 37.4 U/mg | Total recovery ([7]; 0 days stored on gel): 91% | Pool S/A ([7]; 2 days stored on gel): 33.0 U/mg | Total recovery ([7]; 2 days stored on gel): 85% | Pool S/A ([7]; 4 days stored on gel): 28.1 U/mg | Total recovery ([7]; 4 days stored on gel): 76% | Pool S/A ([7]; 8 days stored on gel): 26.9 U/mg | Total recovery ([7]; 8 days stored on gel): 60% | loss of activity on gel ([7]; held on the gel overnight): no loss of activity | % activity recovered ([8]; pH 6, 7 days, Tricine): 69% | % activity recovered ([8]; pH 6, 12 days, Tricine): 45.5% | % activity recovered ([8]; pH 7, 7 days, bis-tris): 99% | % activity recovered ([8]; pH 7, 12 days, bis-tris): 78.2% | % activity recovered ([8]; pH 8, 7 days, Tricine): 81.8% | % activity recovered ([8]; pH 8, 12 days, Tricine): 67.3% | % activity recovered ([8]; pH 9, 7 days, Tricine): 78.2% | % activity recovered ([8]; pH 9, 12 days, Tricine): 56.4% | relative activity ([9]; 20° C.): approximately 10% | relative activity ([9]; 50° C.): 100% | relative activity ([9]; 55° C.): approximately 10% | stability and activity [10]: better stability and activity | % activity recovered ([11]; 0 days, 4° C.): 100% | % activity recovered ([11]; 0 days, 25° C.): 100% | % activity recovered ([11]; 0 days, 37° C.): 100% | % activity recovered ([11]; 3 days, 25° C.): 95% | % activity recovered ([11]; 3 days, 37° C.): 97% | % activity recovered ([11]; 7 days, 4° C.): 83% | % activity recovered ([11]; 7 days, 25° C.): 83% | % activity recovered ([11]; 7 days, 37° C.): 87% | % activity recovered ([11]; 10 days, 25° C.): 94% | % activity recovered ([11]; 10 days, 37° C.): 91% | % activity recovered ([11]; 18 days, 4° C.): 92% | % activity recovered ([11]; 18 days, 25° C.): 88% | % activity recovered ([11]; 18 days, 37° C.): 90% | % activity recovered ([11]; 24 days, 25° C.): 90% | % activity recovered ([11]; 24 days, 37° C.): 87% | % activity recovered ([11]; 50 days, 4° C.): 114% | % activity recovered ([11]; 77 days, 4° C.): 110% | relative activity ([13]; pH 6.0, Tricine (150 mM)): approximately 70% | relative activity ([13]; pH 6.5, bis-tris (150 mM)): ~85% | relative activity ([13]; pH 7.0, bis-tris (150 mM)): ~115% | relative activity ([13]; pH 8.0, Tricine (150 mM)): ~100% | relative activity ([13]; pH 9.0, Tricine (150 mM)): ~90%

Continued, molecule first:

Molecule: [Mg+2] [Mg^2+]
activation of the enzyme [1]: only effective activator of the enzyme | activation, chloride vs sulphate ([1]; chloride compound compared with sulphate): works better as the chloride compound than as the sulphate

Molecule: [Ca+2] [calcium]
effect on PEPC activity ([1]; low concentrations): inhibitory effect

Molecule: C=C(OP(=O)(O)O)C(=O)O [tricyclohexylammonium salt, phosphoenol pyruvate]
Km [3]: 910 µM | Km, comparison of PEP salts [3]: very similar
